Literature values as cited in publication PMC6430685.

Target: BAX (Homo sapiens) (UniProt Q07812)
Sequence (Q07812 whole entry): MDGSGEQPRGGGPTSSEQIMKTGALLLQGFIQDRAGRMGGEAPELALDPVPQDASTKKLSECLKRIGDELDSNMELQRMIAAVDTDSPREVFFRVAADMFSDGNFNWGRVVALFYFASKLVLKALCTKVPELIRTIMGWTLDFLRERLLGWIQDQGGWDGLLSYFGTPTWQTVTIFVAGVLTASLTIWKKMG

Sequence of vMIA (P16778 23-487): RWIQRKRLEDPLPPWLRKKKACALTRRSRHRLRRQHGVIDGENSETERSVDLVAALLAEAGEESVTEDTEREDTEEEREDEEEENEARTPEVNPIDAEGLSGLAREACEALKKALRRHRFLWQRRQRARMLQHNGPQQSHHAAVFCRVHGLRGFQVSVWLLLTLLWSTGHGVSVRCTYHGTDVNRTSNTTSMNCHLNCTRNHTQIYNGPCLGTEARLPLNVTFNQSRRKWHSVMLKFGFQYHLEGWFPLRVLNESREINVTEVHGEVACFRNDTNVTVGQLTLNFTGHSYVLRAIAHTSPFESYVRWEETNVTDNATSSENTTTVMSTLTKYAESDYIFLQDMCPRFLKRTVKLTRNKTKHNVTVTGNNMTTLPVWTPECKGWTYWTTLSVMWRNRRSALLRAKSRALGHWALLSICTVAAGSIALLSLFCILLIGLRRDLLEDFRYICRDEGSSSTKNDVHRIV

Substance: vMIA (from UniProt P16778)
- Kd: 140 nM
